Measured values as given in patent US20030119023, “Nucleic acid binding polypeptides characterized by flexible linkers connected nucleic acid binding modules” (published 2003).

Tests used:
GAC-F4-ZIF [1] = molecular target: GAC-F4-ZIF (artificial); assay: EMSA; optimal 8 bp gap; details: label: 32P
Method: (§1) DNA binding reactions contain the appropriate zinc-finger peptide, binding site and 1 μg competitor DNA (poly dI-dC) in a total volume of 10 μl, which contains: 20 mM Bis-tris propane (pH 7.0), 100 mM NaCl, 5 mM MgCl₂, 50 μM ZnCl₂, 5 mM DTT, 0.1 mg/ml BSA, 0.1% Nonidet P40. Incubations are performed at room temperature for 1 hour.
(§2) To determine whether TFIIIA F4 would still function as a linker when taken out of the context of neighbouring TFIIIA fingers, the GAC-F4-ZIF construct is made (FIGS. 14 and 16). This construct can be thought of simply as two ZIF-based DNA binding domains joined by a structured linker (in this case TFIIIA F4). […] In this case, however, the optimal DNA span is found to be 8 or 9 bps, although 7-11 bp stretches could be spanned without a significant loss in binding affinity.

3x2F ZGSL = 3x2F ZGSL (artificial); assay: EMSA; apparent Kd; details: label: 32P
Method: as §1
(§3) Dissociation constants are determined in parallel to the calculation of active peptide concentration. Serial 3, 4 or 5-fold dilutions of crude peptide are made and incubated with radiolabelled binding site (0.1 pM-500 pM depending on the peptide), as above. Samples are run on 7% native polyacrylamide gels and the radioactive signals quantitated by PhosphorImager analysis. The data is then analysed according to linear transformation of the binding equation and plotted in CA-Cricket Graph III (Computer Associates Inc. NY) to generate the apparent dissociation constants. The Kd values reported are the average of at least two separate studies.
(§4) First the 3x2F ZGS and ZGL peptides are titrated against 12/34/56 (three 6 bp subsites separated by 1 bp, which is represented by a single ‘/’ in the binding site name) and 12//34//56 (three 6 bp subsites separated by 2 bps) binding sites. […] Next, the 3x2F ZGSL and 3x2F ZGLS peptides are targeted against the three non-contiguous sequences: 1234/56, 12/3456 and 12//34//56. […] 3x2F ZGLS show a similar trend in binding affinities.

3x2F ZGL = 3x2F ZGL (artificial); assay: EMSA; apparent Kd; details: label: 32P
Method: as §1, §3, §4

3x2F ZGLS = 3x2F ZGLS (artificial); assay: EMSA; apparent Kd; details: label: 32P
Method: as §1, §3, §4

3x2F ZGXL = 3x2F ZGXL (artificial); assay: EMSA; details: label: 32P
Method: as §1
3x2F ZGXL binds the non-contiguous site bsD approximately as tightly as the 3x2F ZGS peptide binds the contiguous 18 bp site, bsC. However, the 3x2F ZGXL peptide binds bsE (containing 2 base pair gaps between target subsites) approximately 500-fold less tightly than it does bsC and bsD, as shown in FIG. 11. This is presumably because it can only bind bsE through 2 fingers.

[2] = molecular target: ZIF-ZnF-GAC (serine-finger linker) (artificial); assay: EMSA; apparent Kd; details: label: 32P
Method: as §1, §3
A further set of binding studies is then carried out on the construct containing the non-specific zinc finger linker, ZIF-ZnF-GAC. Although this construct is expected to target (primarily) non-contiguous sequences containing three or four base pairs of non-bound DNA, it is tested against all of the binding sites from ZM to Z10M. […]

2x3F ZIF-GAC = 2x3F ZIF-GAC (artificial); assay: EMSA; apparent Kd; details: label: 32P
Method: as §1, §3

[3] = molecular target: ZIF-ZnF-GAC (serine-finger linker) (artificial); assay: EMSA; details: label: 32P
Method: as §1
For this purpose a ‘neutral’ finger is created by replacing the DNA binding residues (those at positions −1, 2, 3, and 6) of wild type ZIF268 finger 2, with serine residues. Serine can act as either an H-bond acceptor or donator, and can therefore interact with all four bases in DNA. This new finger, denoted “ZnF” and flanked by two GERP linkers, is used to join the three-finger peptides of ZIF and the GAC-clone, creating the seven-finger array ZIF-ZnF-GAC (FIG. 17). This peptide is targeted against non-contiguous sites comprising the 9 bp ZIF and GAC-clone recognition sequences separated by 2, 3, 4 or 5 bps of DNA, and also sites bsA and bsC for comparison (FIG. 21).

[4] = molecular target: TF(1-4)-ZIF (TFIIIA F1-4 fused to Zif268) (artificial); assay: EMSA; no preference for gap composition (data not shown); details: label: 32P
GAC-F4-ZIF [5] = molecular target: GAC-F4-ZIF (artificial); assay: EMSA; 11 bp gap spanned without significant loss; details: label: 32P
[6] = molecular target: TF(1-4)-ZIF (TFIIIA F1-4 fused to Zif268) (artificial); assay: EMSA; apparent Kd; table prints gap as X6; details: label: 32P
Method: as §1, §3
(§5) The TF(1-4)-ZIF and TF(1-3)-flex-ZIF peptides are tested against the non-contiguous TF-5,6,7,8,9-Z sites. In these first experiments the DNA composition of the non-bound region is based on the endogenous TFIIIA target site. […] The target sites with 5, 6 or 9 bp gaps are bound at least 5-fold weaker (FIG. 27A). […]

3x2F ZGS [7] = molecular target: 3x2F ZGS (artificial); assay: EMSA; apparent Kd; details: label: 32P
Method: as §1, §3

GAC-F4-ZIF [8] = molecular target: GAC-F4-ZIF (artificial); assay: EMSA; 10 bp gap spanned without significant loss; details: label: 32P
[9] = molecular target: Zif268 (wild-type ZIF, three-finger) (UniProt P08046 P08046:333-421); assay: EMSA; Bis-tris propane pH 7.0, 100 mM NaCl, 5 mM MgCl2, 50 uM ZnCl2, room temperature
[10] = molecular target: TF(1-4)-ZIF (TFIIIA F1-4 fused to Zif268) (artificial); assay: EMSA; apparent Kd; table prints gap as X7; details: label: 32P
Method: as §1, §3, §5

[11] = molecular target: TF(1-4)-ZIF (TFIIIA F1-4 fused to Zif268) (artificial); assay: EMSA; apparent Kd; table prints gap as X8; details: label: 32P
Method: as §1, §3, §5

3x2F ZGS [12] = molecular target: 3x2F ZGS (artificial); assay: EMSA; apparent Kd; details: label: 32P; remark: listed apart in the source
Method: as §1, §3, §4

GAC-F4-ZIF [13] = molecular target: GAC-F4-ZIF (artificial); assay: EMSA; 7 bp gap spanned without significant loss; details: label: 32P
GAC-F4-ZIF [14] = molecular target: GAC-F4-ZIF (artificial); assay: EMSA; optimal 9 bp gap; details: label: 32P
Method: as §1, §2

[15] = molecular target: TF(1-4)-ZIF (TFIIIA F1-4 fused to Zif268) (artificial); assay: EMSA; apparent Kd; table prints gap as X9; details: label: 32P
Method: as §1, §3, §5

[16] = molecular target: TF(1-4)-ZIF (TFIIIA F1-4 fused to Zif268) (artificial); assay: EMSA; apparent Kd; table prints gap as X5; details: label: 32P
Method: as §1, §3

Sequence of GAC-F4-ZIF (artificial) (chain, as listed by the source): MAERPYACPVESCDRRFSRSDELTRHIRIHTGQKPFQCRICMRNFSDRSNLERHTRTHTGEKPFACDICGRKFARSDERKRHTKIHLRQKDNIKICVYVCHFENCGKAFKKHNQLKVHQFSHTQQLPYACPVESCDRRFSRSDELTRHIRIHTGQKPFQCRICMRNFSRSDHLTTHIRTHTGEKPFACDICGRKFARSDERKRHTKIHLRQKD
Sequence of TF(1-4)-ZIF (TFIIIA F1-4 fused to Zif268) (artificial) (chain, as listed by the source): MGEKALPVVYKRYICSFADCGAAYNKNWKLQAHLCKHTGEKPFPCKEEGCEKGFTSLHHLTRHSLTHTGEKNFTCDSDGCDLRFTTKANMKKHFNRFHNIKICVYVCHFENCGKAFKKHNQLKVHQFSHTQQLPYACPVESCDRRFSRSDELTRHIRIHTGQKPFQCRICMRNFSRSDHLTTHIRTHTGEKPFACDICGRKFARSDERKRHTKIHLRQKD
Sequence of ZIF-ZnF-GAC (serine-finger linker) (artificial) (chain, as listed by the source): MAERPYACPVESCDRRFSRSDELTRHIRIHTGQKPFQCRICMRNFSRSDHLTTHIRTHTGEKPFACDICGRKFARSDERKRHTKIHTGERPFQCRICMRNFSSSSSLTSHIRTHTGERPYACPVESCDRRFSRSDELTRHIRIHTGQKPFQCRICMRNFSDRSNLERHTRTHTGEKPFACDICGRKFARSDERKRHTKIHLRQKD
Sequence of 3x2F ZGSL (artificial) (chain, as listed by the source): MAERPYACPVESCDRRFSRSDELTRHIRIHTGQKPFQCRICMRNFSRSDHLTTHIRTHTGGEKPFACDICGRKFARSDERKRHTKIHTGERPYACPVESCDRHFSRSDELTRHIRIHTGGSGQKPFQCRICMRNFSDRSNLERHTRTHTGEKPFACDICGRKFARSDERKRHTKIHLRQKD
Sequence of 3x2F ZGLS (artificial) (chain, as listed by the source): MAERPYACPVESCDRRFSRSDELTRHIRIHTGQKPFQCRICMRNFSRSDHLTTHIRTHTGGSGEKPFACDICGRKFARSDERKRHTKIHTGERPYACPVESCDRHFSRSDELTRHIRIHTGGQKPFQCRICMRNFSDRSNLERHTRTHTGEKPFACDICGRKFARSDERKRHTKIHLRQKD
Sequence of 2x3F ZIF-GAC (artificial) (chain, as listed by the source): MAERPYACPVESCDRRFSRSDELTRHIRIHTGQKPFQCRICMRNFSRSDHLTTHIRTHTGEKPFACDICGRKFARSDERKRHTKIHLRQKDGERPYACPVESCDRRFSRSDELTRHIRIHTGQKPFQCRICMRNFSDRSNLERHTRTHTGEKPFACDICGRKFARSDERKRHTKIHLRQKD
Sequence of 3x2F ZGS (artificial) (chain, as listed by the source): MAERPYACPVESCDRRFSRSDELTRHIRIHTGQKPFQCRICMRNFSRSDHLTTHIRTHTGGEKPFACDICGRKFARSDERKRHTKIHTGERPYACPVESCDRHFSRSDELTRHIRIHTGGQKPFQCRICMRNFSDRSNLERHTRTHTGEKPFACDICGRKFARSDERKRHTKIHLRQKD
Sequence of 3x2F ZGL (artificial) (chain, as listed by the source): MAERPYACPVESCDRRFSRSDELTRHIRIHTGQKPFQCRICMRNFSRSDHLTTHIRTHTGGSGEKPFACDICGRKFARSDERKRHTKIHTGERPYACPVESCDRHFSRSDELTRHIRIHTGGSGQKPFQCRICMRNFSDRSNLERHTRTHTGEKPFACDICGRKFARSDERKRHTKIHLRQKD
Sequence of 3x2F ZGXL (artificial) (chain, as listed by the source): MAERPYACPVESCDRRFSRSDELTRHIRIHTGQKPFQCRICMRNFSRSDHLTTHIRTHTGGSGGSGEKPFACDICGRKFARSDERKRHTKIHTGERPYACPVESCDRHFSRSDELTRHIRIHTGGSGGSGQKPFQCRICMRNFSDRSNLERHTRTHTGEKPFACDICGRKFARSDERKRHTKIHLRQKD

B1: bsC2 (dsDNA)
DNA 1: GCGTGGGCGAGTACCTGGCGGACGCG
DNA 2: CGCGTCCGCCAGGTACTCGCCCACGC
binding signal (GAC-F4-ZIF [1]): ≥ 125 fold stronger than bsA

B2: bsE (12//34//56) (dsDNA)
DNA 1: GCGGAGTCGCGGCGTCTGGGCG
DNA 2: CGCCCAGACGCCGCGACTCCGC
Kd (3x2F ZGSL): 12000 pM | Kd (3x2F ZGL): 11000 pM | Kd (3x2F ZGLS): 12000 pM

B3: bsC (123456, ZM) (dsDNA)
DNA 1: GCGGACGCGGCGTGGGCG
DNA 2: CGCCCACGCCGCGTCCGC
binding result (3x2F ZGXL): binds | Kd [2]: 7 pM | Kd (2x3F ZIF-GAC): 1.4 pM

B4: Z4G (dsDNA)
DNA 1: GCGGACGCGTAGTGCGTGGGCG
DNA 2: CGCCCACGCACTACGCGTCCGC
binding signal [3]: ≥ 500 fold stronger than bsA

B5: bsG1 (dsDNA)
DNA 1: GCGTGGGCGCTTGACGGATGGGAGAC
DNA 2: GTCTCCCATCCGTCAAGCGCCCACGC
binding result [4]: binds

B6: bsF2 (dsDNA)
DNA 1: GCGTGGGCGGTTAGTACCTGGCGGACGCG
DNA 2: CGCGTCCGCCAGGTACTAACCGCCCACGC
binding result (GAC-F4-ZIF [5]): binds

B7: TF6Z (bsB1) (dsDNA)
DNA 1: GCGTGGGCGGTACCTGGATGGGAGAC
DNA 2: GTCTCCCATCCAGGTACCGCCCACGC
Kd [6]: 17 pM

B8: bs2 (123/56) (dsDNA)
DNA 1: GCGGACTGCGTGGGCG
DNA 2: CGCCCACGCAGTCCGC
Kd (2x3F ZIF-GAC): 14 pM | Kd (3x2F ZGS [7]): 630 pM

B9: bsE2 (dsDNA)
DNA 1: GCGTGGGCGTTAGTACCTGGCGGACGCG
DNA 2: CGCGTCCGCCAGGTACTAACGCCCACGC
binding result (GAC-F4-ZIF [8]): binds

B10: Z3G (dsDNA)
DNA 1: GCGGACGCGAGTGCGTGGGCG
DNA 2: CGCCCACGCACTCGCGTCCGC
binding signal [3]: ≥ 500 fold stronger than bsA

B11: bsA (ZIF site) (dsDNA)
DNA 1: GCGTGGGCG
DNA 2: CGCCCACGC
Kd [9]: 450 pM

B12: bs1 (12356) (dsDNA)
DNA 1: GCGGACGCGTGGGCG
DNA 2: CGCCCACGCGTCCGC
Kd (2x3F ZIF-GAC): 360 pM | Kd (3x2F ZGS [7]): 22000 pM

B13: bsH1 (dsDNA)
DNA 1: GCGTGGGCGAAAAAAGGATGGGAGAC
DNA 2: GTCTCCCATCCTTTTTTCGCCCACGC
binding result [4]: binds

B14: TF7Z (bsC1) (dsDNA)
DNA 1: GCGTGGGCGAGTACCTGGATGGGAGAC
DNA 2: GTCTCCCATCCAGGTACTCGCCCACGC
Kd [10]: 3 pM

B15: TF8Z (bsD1) (dsDNA)
DNA 1: GCGTGGGCGTAGTACCTGGATGGGAGAC
DNA 2: GTCTCCCATCCAGGTACTACGCCCACGC
Kd [11]: 3 pM

B16: bsD (12/34/56) (dsDNA)
DNA 1: GCGGACTGCGGCGTTGGGCG
DNA 2: CGCCCAACGCCGCAGTCCGC
Kd (3x2F ZGSL): 110 pM | Kd (3x2F ZGL): 5 pM | Kd (3x2F ZGLS): 120 pM | Kd (3x2F ZGS [12]): 18000 pM

B17: bs4 (123///56) (dsDNA)
DNA 1: GCGGACATCGCGTGGGCG
DNA 2: CGCCCACGCGATGTCCGC
Kd (2x3F ZIF-GAC): 15 pM | Kd (3x2F ZGS [7]): 890 pM

B18: bsB2 (dsDNA)
DNA 1: GCGTGGGCGGTACCTGGCGGACGCG
DNA 2: CGCGTCCGCCAGGTACCGCCCACGC
binding result (GAC-F4-ZIF [13]): binds

B19: bsD2 (dsDNA)
DNA 1: GCGTGGGCGTAGTACCTGGCGGACGCG
DNA 2: CGCGTCCGCCAGGTACTACGCCCACGC
binding signal (GAC-F4-ZIF [14]): ≥ 125 fold stronger than bsA

B20: TF9Z (bsE1) (dsDNA)
DNA 1: GCGTGGGCGTTAGTACCTGGATGGGAGAC
DNA 2: GTCTCCCATCCAGGTACTAACGCCCACGC
Kd [15]: 15 pM

B21: bsF (1234/56 in Table 5) (dsDNA)
DNA 1: GCGGACTGCGGCGTGGGCG
DNA 2: CGCCCACGCCGCAGTCCGC
Kd (3x2F ZGSL): 3 pM | Kd (3x2F ZGLS): 89 pM | Kd (3x2F ZGS [12]): 54 pM

B22: bsG (12/3456 in Table 5) (dsDNA)
DNA 1: GCGGACGCGGCGTTGGGCG
DNA 2: CGCCCAACGCCGCGTCCGC
Kd (3x2F ZGSL): 73 pM | Kd (3x2F ZGLS): 5 pM | Kd (3x2F ZGS [12]): 77 pM

B23: bs3 (123//56) (dsDNA)
DNA 1: GCGGACTCGCGTGGGCG
DNA 2: CGCCCACGCGAGTCCGC
Kd (2x3F ZIF-GAC): 14 pM | Kd (3x2F ZGS [7]): 270 pM

B24: Z2G (dsDNA)
DNA 1: GCGGACGCGGTGCGTGGGCG
DNA 2: CGCCCACGCACCGCGTCCGC
binding signal [3]: ≥ 500 fold stronger than bsA

B25: TF5Z (bsA1) (dsDNA)
DNA 1: GCGTGGGCGTACCTGGATGGGAGAC
DNA 2: GTCTCCCATCCAGGTACGCCCACGC
Kd [16]: 21 pM

B26: Z5G (dsDNA)
DNA 1: GCGGACGCGCTAGTGCGTGGGCG
DNA 2: CGCCCACGCACTAGCGCGTCCGC
binding signal [3]: ≥ 500 fold stronger than bsA
